Columns and labels:
Assay in all cases: cell-based or functional assay
[1] = target: Shaker H4 K+ channel, N-terminal deletion 6-46, P475H mutant (Drosophila) (UniProt P08510)
[2] = target: Shaker H4 K+ channel, N-terminal deletion 6-46, P475K mutant (Drosophila) (UniProt P08510)
[3] = target: Shaker H4 K+ channel, N-terminal deletion 6-46, P475E mutant (Drosophila) (UniProt P08510)
[4] = target: Kv2.1 K+ channel P406D mutant (rat) (UniProt P15387)
[5] = target: Shaker H4 K+ channel, N-terminal deletion 6-46, P475D mutant (Drosophila) (UniProt P08510)
Shaker H4 K+ channel, N-terminal deletion 6-46, P475D mutant (Drosophila), sequence (P08510 whole entry P475D): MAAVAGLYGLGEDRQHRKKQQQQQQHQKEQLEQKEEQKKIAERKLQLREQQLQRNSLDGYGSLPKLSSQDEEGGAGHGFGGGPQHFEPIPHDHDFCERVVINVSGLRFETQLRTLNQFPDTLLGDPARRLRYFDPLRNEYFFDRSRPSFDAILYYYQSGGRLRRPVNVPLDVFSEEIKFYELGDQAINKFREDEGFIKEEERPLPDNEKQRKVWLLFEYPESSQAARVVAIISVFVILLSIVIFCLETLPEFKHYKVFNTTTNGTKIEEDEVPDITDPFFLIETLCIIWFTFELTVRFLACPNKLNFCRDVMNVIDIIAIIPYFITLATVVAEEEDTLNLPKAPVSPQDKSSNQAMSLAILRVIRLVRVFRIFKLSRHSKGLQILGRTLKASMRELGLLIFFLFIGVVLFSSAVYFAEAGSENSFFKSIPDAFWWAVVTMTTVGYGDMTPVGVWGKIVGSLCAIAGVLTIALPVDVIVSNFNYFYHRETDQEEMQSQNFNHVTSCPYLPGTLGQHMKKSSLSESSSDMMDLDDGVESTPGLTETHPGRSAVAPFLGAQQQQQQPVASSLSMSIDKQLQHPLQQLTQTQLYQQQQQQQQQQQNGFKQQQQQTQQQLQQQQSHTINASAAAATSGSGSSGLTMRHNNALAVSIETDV

Measured: block of channel current (two-electrode voltage clamp, Xenopus oocytes); concentration called saturating

Shaker H4 K+ channel, N-terminal deletion 6-46, P475K mutant (Drosophila), sequence (P08510 whole entry P475K): as the sequence (P08510 whole entry P475D) above, with D475K counted along it
Shaker H4 K+ channel, N-terminal deletion 6-46, P475H mutant (Drosophila), sequence (P08510 whole entry P475H): as the sequence (P08510 whole entry P475D) above, with D475H counted along it
Shaker H4 K+ channel, N-terminal deletion 6-46, P475E mutant (Drosophila), sequence (P08510 whole entry P475E): as the sequence (P08510 whole entry P475D) above, with D475E counted along it

agitoxin2 (from UniProt P46111 1-38) (peptide)
1 µM: [1] | [2] | [3] | [4] | [5]

Reference: US20030211575A1
